From US20140302035A1 (MERRIMACK PHARMACEUTICALS, published 2014)

Tests used:
[1] = molecular target: T1, Human EpCAM-Fc-his tagged (human); experiment: BLI (ForteBio Octet), antibody loaded on Protein A tips, recombinant polyhistidine-tagged EpCAM-Fc in solution
T1 construct: also called Recombinant polyhistidine-tagged EpCAM-Fc; recombinant EpCAM

[2] = molecular target: T1, Human EpCAM-Fc-his tagged; experiment: BLI (ForteBio Octet), repeat analysis, antibody on Protein A tips, recombinant polyhistidine-tagged EpCAM-Fc in solution, 1:1 model
Experimental: (§1) For Octet analysis, all reagents and samples are brought to room temperature. Protein A sensor tips (ForteBio, #18-5010) are hydrated for 10 minutes in 1×PBS. Assay steps include: 1-2 minutes of equilibration in 1×PBS, 4 minutes of antibody loading (concentration of 50 μg/ml in 1×PBS), 1-2 minutes of baseline stabilization, 4 minutes of antibody:antigen association, and 4 minutes of antibody:antigen dissociation. 1×PBS is used as the matrix throughout. Data are analyzed with Octet Data Analysis software, processed, and fit to a 1:1 binding model to determine kinetic parameters (Kd, kₒₙ and kdiss).
Table A-3 describes a repeat analysis for Ab#5, Ab#7, and Ab#13. For the repeat experiment, Kd and kdiss values for Ab#5, Ab#7, and Ab#13 are substantially equivalent to those determined for Ab#5, Ab#7, and Ab#13 in the initial experiment.

cMet-his = molecular target: T2, cMet-his (Homo sapiens (Human), UniProt P08581 25-933); experiment: BLI (ForteBio Octet), antibody loaded on Protein A tips, recombinant polyhistidine-tagged c-Met in solution, 1:1 model
T2 construct: also called his tagged cMET; Recombinant polyhistidine-tagged c-Met
Experimental: as §1
Table A-4 describes approximate c-Met binding affinity and dissociation rate as determined for Ab#5 and Ab#7.

[3] = molecular target: T1, Human EpCAM-Fc-his tagged; experiment: BLI (ForteBio Octet), antibody loaded on Protein A tips, recombinant polyhistidine-tagged EpCAM-Fc in solution, 1:1 model
How it was run: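 Biolayer interferometry at room temperature in 1×PBS: antibody (50 μg/ml) captured on Protein A tips for 4 min, then 4 min association with antigen in solution and 4 min dissociation. Kd, kₒₙ and kdiss were obtained from a 1:1 binding model fit.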

T1 sequence (chain, as listed by the source): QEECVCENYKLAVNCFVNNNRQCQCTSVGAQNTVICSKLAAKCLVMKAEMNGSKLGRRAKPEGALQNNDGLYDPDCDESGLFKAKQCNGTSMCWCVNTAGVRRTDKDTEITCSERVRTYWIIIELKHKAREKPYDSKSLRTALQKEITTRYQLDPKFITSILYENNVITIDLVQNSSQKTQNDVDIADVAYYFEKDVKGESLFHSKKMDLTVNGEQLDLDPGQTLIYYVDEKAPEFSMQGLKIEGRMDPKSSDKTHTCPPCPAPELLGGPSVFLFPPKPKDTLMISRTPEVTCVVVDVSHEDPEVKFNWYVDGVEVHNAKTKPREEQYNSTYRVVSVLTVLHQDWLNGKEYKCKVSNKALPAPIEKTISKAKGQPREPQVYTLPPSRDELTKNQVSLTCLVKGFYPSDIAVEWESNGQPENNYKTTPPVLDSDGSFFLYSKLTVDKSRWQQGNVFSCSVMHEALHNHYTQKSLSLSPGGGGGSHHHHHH

Row | binding result [1] | Kd [2] | koff [2] | Kd (cMet-his) | koff (cMet-his) | Kd [3] | koff [3] | Binder
1 | no binding | – | – | – | – | – | – | Ab#2 (bispecific antibody, human IgG1, kappa, Anti-c-Met Fab / tandem Fc / anti-EpCAM scFv TFcBA; also called Antibody #2) heavy: QLQLQESGPGLVKPSETLSLTCTVSGGSISSSVYYWSWIRQPPGKGLEWIGVIYPSGNTYYSPSLKSRVTISVDTSKNQFSLKLSSVTAADTAVYYCARTIYDLFDIWGQGTMVTVSSASTKGPSVFPLAPSSKSTSGGTAALGCLVKDYFPEPVTVSWNSGALTSGVHTFPAVLQSSGLYSLSSVVTVPSSSLGTQTYICNVNHKPSNTKVDKKVEPKSCDKTHTCPSCPAPEFLGGPSVFLFPPKPKDTLMISRTPEVTCVVVDVSQEDPEVQFNWYVDGVEVHNAKTKPREEQFNSKYRVVSVLTVLHQDWLNGKEYKCKVSNKGLPSSIEKTISKAKGQPREPQVYTLPPSREEMTKNQVSLSCAVKGFYPSDIAVEWESNGQPENNYKTTPPVLDSDGSFFLVSKLTVDKSRWQQGNVFSCSVMHEALHNHYTQKSLSLSKSCDKTGGGGSGGGGSGGGGSGGGGSGGGGSGGGGSGGGGSGGGGSCPSCPAPEFLGGPSVFLFPPKPKDTLMISRTPEVTCVVVDVSQEDPEVQFNWYVDGVEVHNAKTKPREEQFNSDYRVVSVLTVLHQDWLNGKEYKCKVSNKGLPSSIEKTISKAKGQPREPQVYTLPPSREEMTKNQVSLWCLVKGFYPSDIAVEWESNGQPENNYKTTPPVLDSDGSFFLYSKLTVDKSRWQQGNVFSCSVMHEALHNHYTQKSLSLSGECGGGGSGGGGSQVQLVQSGSELKKPGESVKVSCKASGYTFTNYGMHWVRQAPGQGLKWMGWINTYTGESTYADDFKGRFAFSLDTSASTAYLQISSLKAEDTAVYFCARFAIKGDYWGQGTLVTVSSASTGGGGSGGGGSGGGGSGGGGSDIVMTQSPLSLPVTPGEPASISCRSTKSLLHSDGITYLYWYLQKPGQSPQLLIYQLSNLASGVPDRFSSSGSGTDFTLKISRVEAEDEGVYYCAQNLEIPYTFGQGTKVEIK light: DIQMTQSPSSVSASVGDRVTITCRASQGISSWLAWYQQKPGKAPKLLIYAASSLQSGVPSRFSGSGSGTDFTLTISSLQPEDFATYYCLQANSFPPTFGGGTKVEIKRTVAAPSVFIFPPSDEQLKSGTASVVCLLNNFYPREAKVQWKVDNALQSGNSQESVTEQDSKDSTYSLSSTLTLSKADYEKHKVYACEVTHQGLSSPVTKSFNRGEC
2 | – | 15.4 nM | 0.00137 s⁻¹ | 2.81 nM | 0.000554 s⁻¹ | 25.9 nM | 0.00132 s⁻¹ | Ab#7 (bispecific antibody, human IgG1, kappa, Anti-c-Met Fab / tandem Fc / anti-EpCAM scFv TFcBA; also called Antibody #7) heavy: QLQLQESGPGLVKPSETLSLTCTVSGGSISSSVYYWSWIRQPPGKGLEWIGVIYPSGNTYYSPSLKSRVTISVDTSKNQFSLKLSSVTAADTAVYYCARTIYDLFDIWGQGTMVTVSSASTKGPSVFPLAPSSKSTSGGTAALGCLVKDYFPEPVTVSWNSGALTSGVHTFPAVLQSSGLYSLSSVVTVPSSSLGTQTYICNVNHKPSNTKVDKKVEPKSCDKTHTCPSCPAPEFLGGPSVFLFPPKPKDTLMISRTPEVTCVVVDVSQEDPEVQFNWYVDGVEVHNAKTKPREEQFNSKYRVVSVLTVLHQDWLNGKEYKCKVSNKGLPSSIEKTISKAKGQPREPQVYTLPPSREEMTKNQVSLSCAVKGFYPSDIAVEWESNGQPENNYKTTPPVLDSDGSFFLVSKLTVDKSRWQQGNVFSCSVMHEALHNHYTQKSLSLSKSCDKTGGGGSGGGGSGGGGSGGGGSGGGGSGGGGSGGGGSGGGGSCPSCPAPEFLGGPSVFLFPPKPKDTLMISRTPEVTCVVVDVSQEDPEVQFNWYVDGVEVHNAKTKPREEQFNSDYRVVSVLTVLHQDWLNGKEYKCKVSNKGLPSSIEKTISKAKGQPREPQVYTLPPSREEMTKNQVSLWCLVKGFYPSDIAVEWESNGQPENNYKTTPPVLDSDGSFFLYSKLTVDKSRWQQGNVFSCSVMHEALHNHYTQKSLSLSGECGGGGSGGGGSDIVMTQSPLSLPVTPGEPASISCRSTKSLLHSDGITYLYWYLQKPGQSPQLLIYQLSNLASGVPDRFSSSGSGTDFTLKISRVEAEDEGVYYCAQNLEIPRTFGCGTKLEIKRTGGGGSGGGGSGGGGSGGGGSQVQLVQSGAEVKKPGESVKISCKASGYTFTNYGMNWVRQAPGQCLKWMGWINTYTGESTYADDFKGRFAFSLDTSASTAYLQLSSLRSEDTAVYFCARFAIKGDYWGQGTLVTVSS light: DIQMTQSPSSVSASVGDRVTITCRASQGISSWLAWYQQKPGKAPKLLIYAASSLQSGVPSRFSGSGSGTDFTLTISSLQPEDFATYYCLQANSFPPTFGGGTKVEIKRTVAAPSVFIFPPSDEQLKSGTASVVCLLNNFYPREAKVQWKVDNALQSGNSQESVTEQDSKDSTYSLSSTLTLSKADYEKHKVYACEVTHQGLSSPVTKSFNRGEC
